Test results: doi:10.1101/2021.12.11.472236 (bioRxiv, 2021)

Key:
[1] = molecular target: RBD of Rf1 (Bat SARS CoV Rf1/2004, UniProt Q0QDZ0); assay: ELISA
[2] = molecular target: SARS-CoV-2 WA1 RBD (SARS-CoV-2, UniProt P0DTC2); assay: crystal structure

| Binder | binding result [1] | binding result [2] |
| --- | --- | --- |
| 10-28 (antibody, V domains shown) VH: QVQLVESGGGVVQPGRSLRLSCAASGFTFSSYDMHWVRQAPGKGLEWVAVISYDGSSKFYAESVKGRFTISRDNSKNTLYLQMNSLRAEETAVYYCVKDGEQLVPLFDYWGQGTLVTVSS VL: not shown | binds |  |
| 10-28 Fab (Fab, V domains shown) VH: QVQLVESGGGVVQPGRSLRLSCAASGFTFSSYDMHWVRQAPGKGLEWVAVISYDGSSKFYAESVKGRFTISRDNSKNTLYLQMNSLRAEETAVYYCVKDGEQLVPLFDYWGQGTLVTVSS VL: not shown |  | binds |
| 10-40 (antibody, V domains shown) VH: QLQLQESGPGLVKPSETLSLTCTVSGGSISSSNFYWGWIRQPPGKGLEWIASITYSGRTFYNPSLKSRVAISVDTSKNQFSLKLSSVTAADTAVYYCARTFPSYYDRSGYHYLNYGMDVWGQGTTVTVSS VL: NFMLTQPHSMSESPGKTVTISCTRSSGSIASNYVQWYQQRPGSSPTTVIYEDNQRPSGVPDRFSGSIDSSSNSASLTISGLKTEDEADYYCQSYDSSSWVFGGGTKLTVL | binds |  |
| 10-40 Fab (Fab, V domains shown) VH: QLQLQESGPGLVKPSETLSLTCTVSGGSISSSNFYWGWIRQPPGKGLEWIASITYSGRTFYNPSLKSRVAISVDTSKNQFSLKLSSVTAADTAVYYCARTFPSYYDRSGYHYLNYGMDVWGQGTTVTVSS VL: NFMLTQPHSMSESPGKTVTISCTRSSGSIASNYVQWYQQRPGSSPTTVIYEDNQRPSGVPDRFSGSIDSSSNSASLTISGLKTEDEADYYCQSYDSSSWVFGGGTKLTVL |  | binds |
